Experimental findings from publication PMC6966528 are described below.

The target of this assay is mutant E-cadherin-GFP (Y753, 754, 859, and 876 mutated into F) (human) (UniProt P12830). The experiment in a line: co-IP; lysates of HEK293T cells transiently transfected with WT or mutant E-Cdh-GFP; IP with anti-GFP antibody; Western blot for α- and β-Ctn, densitometry relative to the WT band set to 1.
UniProt P12830, sequence (P12830 other isoform, or with tags, fused parts or gaps mutant): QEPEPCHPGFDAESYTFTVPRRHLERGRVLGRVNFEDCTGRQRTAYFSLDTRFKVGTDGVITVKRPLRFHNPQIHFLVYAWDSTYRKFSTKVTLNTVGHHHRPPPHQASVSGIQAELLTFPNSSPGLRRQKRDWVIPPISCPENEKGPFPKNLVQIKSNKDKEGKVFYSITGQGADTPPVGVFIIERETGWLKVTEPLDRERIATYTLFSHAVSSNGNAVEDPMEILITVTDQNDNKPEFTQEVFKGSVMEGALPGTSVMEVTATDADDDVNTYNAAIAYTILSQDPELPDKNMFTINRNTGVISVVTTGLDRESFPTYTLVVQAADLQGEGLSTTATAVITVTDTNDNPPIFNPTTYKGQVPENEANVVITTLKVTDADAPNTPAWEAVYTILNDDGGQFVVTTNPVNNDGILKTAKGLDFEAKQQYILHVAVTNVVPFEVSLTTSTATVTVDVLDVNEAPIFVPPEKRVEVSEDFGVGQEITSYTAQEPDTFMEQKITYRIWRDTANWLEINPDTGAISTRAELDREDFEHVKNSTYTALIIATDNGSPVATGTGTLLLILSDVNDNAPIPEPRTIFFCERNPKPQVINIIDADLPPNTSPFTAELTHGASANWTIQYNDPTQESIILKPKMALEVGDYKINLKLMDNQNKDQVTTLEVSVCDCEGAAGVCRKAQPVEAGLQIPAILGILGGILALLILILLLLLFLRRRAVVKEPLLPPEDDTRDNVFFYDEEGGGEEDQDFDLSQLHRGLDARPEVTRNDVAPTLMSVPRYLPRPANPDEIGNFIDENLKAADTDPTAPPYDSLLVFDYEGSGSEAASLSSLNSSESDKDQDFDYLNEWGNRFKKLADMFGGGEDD

Take “β-catenin (from UniProt P35222 1-781) (natural protein)”: the reduction of co-immunoprecipitation relative to WT E-Cdh-GFP was 60%.

Substance “α-catenin (from UniProt P35221 1-906) (natural protein)” yielded a reduction of co-immunoprecipitation relative to WT E-Cdh-GFP of 60%.
